Residue numbers refer to the chain shown, from its start. Names and notes keep the numbering of the source.
T1: EsCas13d, nuclease-dead (Eubacterium siraeum, UniProt B0MS50, R295A;H300A;R849A;H854A)
T1 sequence: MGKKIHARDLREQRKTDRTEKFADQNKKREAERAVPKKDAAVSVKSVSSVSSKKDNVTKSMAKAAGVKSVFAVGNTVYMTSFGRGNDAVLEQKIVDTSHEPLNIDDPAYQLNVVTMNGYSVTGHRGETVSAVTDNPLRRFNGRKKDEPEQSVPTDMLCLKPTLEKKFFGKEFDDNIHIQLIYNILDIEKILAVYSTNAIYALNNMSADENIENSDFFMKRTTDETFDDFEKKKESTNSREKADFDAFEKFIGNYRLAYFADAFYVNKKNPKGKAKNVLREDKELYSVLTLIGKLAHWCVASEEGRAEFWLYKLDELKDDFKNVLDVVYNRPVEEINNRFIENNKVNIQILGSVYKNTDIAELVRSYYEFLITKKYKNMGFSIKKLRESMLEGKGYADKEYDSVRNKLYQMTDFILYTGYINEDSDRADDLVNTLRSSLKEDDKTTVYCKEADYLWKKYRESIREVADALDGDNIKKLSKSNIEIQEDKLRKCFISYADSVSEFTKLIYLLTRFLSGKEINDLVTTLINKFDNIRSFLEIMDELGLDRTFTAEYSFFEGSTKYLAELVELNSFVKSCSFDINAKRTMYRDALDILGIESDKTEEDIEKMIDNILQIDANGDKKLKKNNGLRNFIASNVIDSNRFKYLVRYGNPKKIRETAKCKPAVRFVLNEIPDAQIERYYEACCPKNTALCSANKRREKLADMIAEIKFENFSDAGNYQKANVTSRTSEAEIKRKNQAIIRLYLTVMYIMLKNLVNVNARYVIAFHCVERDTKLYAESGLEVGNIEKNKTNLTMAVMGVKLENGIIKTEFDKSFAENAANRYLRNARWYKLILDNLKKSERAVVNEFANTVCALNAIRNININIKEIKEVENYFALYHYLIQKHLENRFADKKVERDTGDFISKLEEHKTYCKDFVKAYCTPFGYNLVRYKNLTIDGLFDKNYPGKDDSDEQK

B1: target 1 G15C,C22U (mixed)
RNA 1: CACCCGUGCAAAAAUGCAGGGGUCUAAAACUGAGCGGAUAACCUCUCUAUGG
RNA 2: GGGAAUGGAUCCACAUCUACGAAUUCGUAUCAUAGACAGGUUAUCCGCUCACCGAGAUCGGAAGAGCACACGU
B2: target 3 insU 3' of 11,insC 3' of 4 (mixed)
RNA 1: CACCCGUGCAAAAUUGCAGGGGUCUAAAACGACCUGAAUAUUUCAGAUCAAA
RNA 2: GGGAAUGGAUCCACAUCUACGAAUUCGUUUUUGAUCUGAAAUUAUUCAGCGUCUGCAGAUCGGAAGAGCACACGU
B3: target 3 del8,del22 (mixed)
RNA 1: B2 RNA 1
RNA 2: GGGAAUGGAUCCACAUCUACGAAUUCGUUUUGAUCUGAAAUAUCAGGUCUGCAGAUCGGAAGAGCACACGU
B4: target 3 insU 3' of 3,insA 3' of 3 (mixed)
RNA 1: B2 RNA 1
RNA 2: B2 RNA 2 with U43A, A44U, U46C, C47A, A48G, C50U, G51A
B5: target 3 insA 3' of 15,insU 3' of 1 (mixed)
RNA 1: B2 RNA 1
RNA 2: B2 RNA 2 with G38A, A39G, U42A, C50G, G51U, U52C, C53U
B6: target 3 G4U,C6U (mixed)
RNA 1: B2 RNA 1
RNA 2: GGGAAUGGAUCCACAUCUACGAAUUCGUUUUUGAUCUGAAAUAUUUAUGUCUGCAGAUCGGAAGAGCACACGU
B7: target 3 insC 3' of 11 (mixed)
RNA 1: B2 RNA 1
RNA 2: GGGAAUGGAUCCACAUCUACGAAUUCGUUUUUGAUCUGAAACUAUUCAGGUCUGCAGAUCGGAAGAGCACACGU
B8: target 3 C1G (mixed)
RNA 1: B2 RNA 1
RNA 2: B6 RNA 2 with U46C, U48G, C51G
B9: target 3 insG 3' of 6,insG 3' of 5 (mixed)
RNA 1: B2 RNA 1
RNA 2: B2 RNA 2 with U43A, A44U, U46C, C47G, C50G
B10: target 3 insU 3' of 5,insA 3' of 2 (mixed)
RNA 1: B2 RNA 1
RNA 2: B2 RNA 2 with U43A, A44U, U46C, C47A, A48U, C50G, G51U, U52A
B11: target 3 U21C (mixed)
RNA 1: B2 RNA 1
RNA 2: B6 RNA 2 with U31C, U46C, U48G
B12: target 3 insC 3' of 5,insG 3' of 1 (mixed)
RNA 1: B2 RNA 1
RNA 2: B2 RNA 2 with U43A, A44U, U46C, C47A, A48C, C50G, G51U, U52C, C53G
B13: target 3 G3C,U8C (mixed)
RNA 1: B2 RNA 1
RNA 2: B6 RNA 2 with U44C, U46C, U48G, G49C
B14: target 3 C6G,A11G (mixed)
RNA 1: B2 RNA 1
RNA 2: B6 RNA 2 with A41G, U46G, U48G
B15: target 3 insU 3' of 6,insU 3' of 6 (mixed)
RNA 1: B2 RNA 1
RNA 2: B2 RNA 2 with U43A, A44U, U46C, C47U, A48U, G49A, C50G

Molecular target: T1, EsCas13d, nuclease-dead
Assay: crRNA (strand 1, pre-loaded); Mg2+; 40 mM Tris-HCl pH 7.5, 150 mM NaCl, 6 mM MgCl2, 1 mM DTT, 0.1% Tween-20, 0.2 mg/ml BSA; 25 C; 10 min per concentration, then washed
Details: tags: His6-TwinStrep-SUMO cleaved; N-terminal SNAP kept (SNAP-Surface 488); label: 3' end held by stalled T7 RNA polymerase

| Binder | Kd [nM] |
| --- | --- |
| B1 | ~70 |
| B2 | 90 ± 26 |
| B3 | 74.5 ± 13 |
| B4 | 28.7 ± 3 |
| B5 | 51 ± 5 |
| B6 | 7.45 ± 0.85 |
| B7 | 83.5 ± 29 |
| B8 | 28.8 ± 4.15 |
| B9 | 8.85 ± 0.8 |
| B10 | 21.2 ± 3.65 |
| B11 | 71 ± 18 |
| B12 | 38.5 ± 13 |
| B13 | 71 ± 6 |
| B14 | 60 ± 18 |
| B15 | 17.3 ± 1.2 |

Source: article PMC10786891, “Massively parallel profiling of RNA-targeting CRISPR-Cas13d”
